What was measured:
[1] = target: MBP-E6 F2V (human papillomavirus type 16); assay: bead-based binding assay on filter plates (alkaline phosphatase luminescence); MBP-E6 held on amylose beads at indicated concentrations or 0.67 uM; E6AP-BAP added at 50 nM, 1-3 h, room temperature; 400 mM NaCl, 50 mM Tris-HCl pH 6.8, 0.1% milk, 1 mM DTT; amylose bead control subtracted
[2] = target: E6AP-BAP (aa 371-440) fusion protein (UniProt Q05086)
[3] = target: T1, E6AP-BAP (aa 371-440) fusion protein (UniProt Q05086 371-440); assay: cell-based or functional assay
T1 sequence (looked up): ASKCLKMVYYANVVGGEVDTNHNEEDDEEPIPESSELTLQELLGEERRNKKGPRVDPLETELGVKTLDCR

E6AP-BAP (aa 371-440) fusion protein (from UniProt Q05086 371-440) (domain or fragment)
percent of the wild-type binding capacity (% of wild type) [1]: 70

MBP-E6 R55A (natural protein)
p53 in vitro degradation by purified MBP-E6 in rabbit reticulocyte lysate, 2 h; activity against wild type [2]: 50%

MBP-E6 R102A (natural protein)
p53-luciferase reporter level in C33A cells transfected with HPV-16 E6 expression vector (untagged, pLXSN), EC50 in ng of DNA [2]: 172 ng | p53 in vitro degradation, 3 h incubation, 0.25 and 1 uM MBP-E6 R102A; decrease of p53 [2]: 50%

B1: MBP-HPV-16 E6 (wild-type) (natural protein, human papillomavirus type 16, UniProt P03126 1-158, looked up)
chain: MHQKRTAMFQDPQERPRKLPQLCTELQTTIHDIILECVYCKQQLLRREVYDFAFRDLCIVYRDGNPYAVCDKCLKFYSKISEYRHYCYSLYGTTLEQQYNKPLCDLLIRCINCQKPLCPEEKQRHLDKKQRFHNIRGRWTGRCMSCCRSSRTRRETQL
p53-luciferase reporter level in C33A cells transfected with HPV-16 E6 expression vector (untagged, pLXSN), EC50 in ng of DNA [3]: 32 ng
